Laboratory results from paper PMC11109380.

Assays:
[1] = biological target: human CD3ε cytoplasmic tail fused to GST, Y39/50E (human); test: pull-down; GST-CD3ε cytoplasmic tail variants on glutathione sepharose beads, incubated with Jurkat T cell lysate (lysis buffer with 0.3% Brij96V, 20 mM Tris-HCl pH 8, 137 mM NaCl) overnight at 4°C; immunoblot, signals normalised to GST
[2] = biological target: human CD3ε cytoplasmic tail fused to GST, Y50E (human); test: as above
[3] = biological target: human CD3ε Y50E-FLAG expressed in JK εKO cells (human); test: proximity ligation; in situ PLA (Duolink) with goat anti-CD3ε and mouse anti-LCK in JK εKO cells expressing hCD3ε variants; unstimulated or stimulated with 5 μg/ml anti-CD3ε (OKT3) for 5 min at 37°C; dots per cell normalised to the stimulated WT

reduction of binding compared to CD3ε WT [1]: 80%
reduction of binding compared to CD3ε WT [2]: 80%
reduction of TCR-LCK proximity compared to WT [3]: 60%
residual binding [3]: < 30%
Substance: Src family kinase LCK (from UniProt P06239 1-509) (enzyme)
